± gives the uncertainty stated by the source.
B1: Tyrosine-protein kinase Lck, residues 63 to 120; numbered along this chain, P06239 (parent)
chain: DNLVIALHSYEPSHDGDLGFEKGEQLRILEQSGEWWKAQSLTTGQEGFIPFNFVAKAN

Variants of: B1
Test: abundance fitness (aPCA) (normalised: wild type 0, dead -1); higher = more abundant; growth selection in yeast, the domain comes from the species named
Conditions: Homo sapiens
L18H showed an abundance fitness of -0.732 ± 0.16. L18C showed an abundance fitness of -0.898 ± 0.21. In the case of L18R, the abundance fitness is reported as -0.86 ± 0.12. For L18M, the abundance fitness was -0.295 ± 0.11. L18S gave an abundance fitness of -0.884 ± 0.12. Work on L18I yielded an abundance fitness of -0.176 ± 0.1. In the case of L18N, the abundance fitness is reported as -0.722 ± 0.17. In the case of L18T, the abundance fitness is reported as -0.714 ± 0.15. W36I showed an abundance fitness of -0.617 ± 0.31. In the case of W36A, the abundance fitness is reported as 0.032 ± 0.094. W36H showed an abundance fitness of -0.585 ± 0.27. In the case of W36S, the abundance fitness is reported as -0.408 ± 0.086. Variant W36F has an abundance fitness of -0.181 ± 0.13. W36R gave an abundance fitness of -0.213 ± 0.066. With L3D the abundance fitness was -0.503 ± 0.16. With L3Q the abundance fitness was -0.122 ± 0.15. L3C gave an abundance fitness of -0.273 ± 0.17. L3F showed an abundance fitness of -0.304 ± 0.14. L3T showed an abundance fitness of -0.019 ± 0.11. Work on L3Y yielded an abundance fitness of -0.113 ± 0.17. Work on L3H yielded an abundance fitness of -0.486 ± 0.17. For L3W, the abundance fitness was -0.232 ± 0.1. Variant L3N has an abundance fitness of -0.159 ± 0.26. L3P gave an abundance fitness of -0.74 ± 0.25. Work on L3M yielded an abundance fitness of -0.094 ± 0.12. E11H gave an abundance fitness of -0.156 ± 0.18. With E11W the abundance fitness was -0.435 ± 0.11. E11R gave an abundance fitness of -0.145 ± 0.075. Variant E11Y has an abundance fitness of -0.363 ± 0.16. E11L gave an abundance fitness of -0.164 ± 0.084. With E11S the abundance fitness was -0.16 ± 0.11. In the case of I49K, the abundance fitness is reported as -0.771 ± 0.18. Work on I49N yielded an abundance fitness of -0.828 ± 0.21. I49G showed an abundance fitness of -0.905 ± 0.11. Work on I49P yielded an abundance fitness of -0.759 ± 0.17. I49M gave an abundance fitness of -0.663 ± 0.24. I49C showed an abundance fitness of -0.67 ± 0.15. With F51T the abundance fitness was -0.235 ± 0.12. F51A showed an abundance fitness of 0.104 ± 0.083. F51H gave an abundance fitness of -0.055 ± 0.17. F51C showed an abundance fitness of 0.163 ± 0.1. For F51L, the abundance fitness was -0.221 ± 0.073. In the case of F51I, the abundance fitness is reported as 0.047 ± 0.18. Work on F51R yielded an abundance fitness of 0.148 ± 0.076. Variant G33K has an abundance fitness of -0.545 ± 0.16. G33F gave an abundance fitness of -0.853 ± 0.23. For G33W, the abundance fitness was -0.929 ± 0.18. Variant G33Y has an abundance fitness of -0.922 ± 0.25. With G33E the abundance fitness was -0.491 ± 0.12. With H8E the abundance fitness was -0.096 ± 0.1. H8Q showed an abundance fitness of -0.086 ± 0.13. With H8K the abundance fitness was 0.285 ± 0.17. With H8P the abundance fitness was -0.79 ± 0.18. Variant H8I has an abundance fitness of -0.262 ± 0.11. Variant H8N has an abundance fitness of -0.001 ± 0.14. Variant A38T has an abundance fitness of -0.963 ± 0.23. Variant A38V has an abundance fitness of -0.104 ± 0.082. A38S gave an abundance fitness of -0.795 ± 0.16. D15I showed an abundance fitness of -0.225 ± 0.15. For D15Y, the abundance fitness was -0.071 ± 0.17. In the case of D15Q, the abundance fitness is reported as -0.02 ± 0.14. D15M showed an abundance fitness of -0.225 ± 0.12. L29G gave an abundance fitness of -0.734 ± 0.089. Variant L29S has an abundance fitness of -0.44 ± 0.11. L29H showed an abundance fitness of -0.184 ± 0.21. In the case of L29T, the abundance fitness is reported as -0.283 ± 0.097. L29M showed an abundance fitness of -0.315 ± 0.14. Work on L29Q yielded an abundance fitness of -0.401 ± 0.18. With L29W the abundance fitness was -0.87 ± 0.2. Work on L29I yielded an abundance fitness of -0.339 ± 0.18. With E34Y the abundance fitness was -0.026 ± 0.19. E34G showed an abundance fitness of -0.13 ± 0.081. Work on E34V yielded an abundance fitness of -0.076 ± 0.092. For E34R, the abundance fitness was 0.006 ± 0.07. Variant E34P has an abundance fitness of -0.183 ± 0.12. For F48I, the abundance fitness was -0.264 ± 0.18. F48V gave an abundance fitness of -0.096 ± 0.064. In the case of F48G, the abundance fitness is reported as -0.576 ± 0.063. For D17S, the abundance fitness was -0.045 ± 0.11. Variant D17V has an abundance fitness of -0.111 ± 0.089. In the case of D17H, the abundance fitness is reported as 0.011 ± 0.16. For D17N, the abundance fitness was -0.177 ± 0.13. Variant D17A has an abundance fitness of -0.006 ± 0.093. With D17W the abundance fitness was -0.083 ± 0.084. Work on D17K yielded an abundance fitness of 0.051 ± 0.14. With R27H the abundance fitness was -0.049 ± 0.13. In the case of R27M, the abundance fitness is reported as -0.309 ± 0.14. Work on R27K yielded an abundance fitness of -0.154 ± 0.14. R27T gave an abundance fitness of -0.24 ± 0.12. Variant R27S has an abundance fitness of -0.465 ± 0.091. In the case of R27I, the abundance fitness is reported as -0.162 ± 0.14. In the case of R27N, the abundance fitness is reported as -0.471 ± 0.14. With S13V the abundance fitness was -0.097 ± 0.074. Variant S13T has an abundance fitness of 0.047 ± 0.083. Variant S13F has an abundance fitness of -0.412 ± 0.11. For S13I, the abundance fitness was -0.215 ± 0.14. Variant S13E has an abundance fitness of -0.096 ± 0.095. With E24C the abundance fitness was -0.628 ± 0.12. E24F showed an abundance fitness of -0.997 ± 0.24. E24V showed an abundance fitness of -0.835 ± 0.1. E24I gave an abundance fitness of -0.758 ± 0.29. Work on E24Q yielded an abundance fitness of -0.385 ± 0.13. With E24K the abundance fitness was -0.82 ± 0.16. For K37E, the abundance fitness was -0.435 ± 0.1. In the case of K37F, the abundance fitness is reported as -0.229 ± 0.14. K37D gave an abundance fitness of -1.16 ± 0.29. Variant K37V has an abundance fitness of -0.232 ± 0.092. For Q31H, the abundance fitness was -0.301 ± 0.17. For Q31V, the abundance fitness was -0.354 ± 0.11. In the case of Q31L, the abundance fitness is reported as -0.707 ± 0.1. Variant A6E has an abundance fitness of -0.857 ± 0.26. For A6N, the abundance fitness was -0.956 ± 0.2. A6S gave an abundance fitness of -0.348 ± 0.088. Work on A6W yielded an abundance fitness of -1.2 ± 0.32. A6M gave an abundance fitness of -0.637 ± 0.19. For A6G, the abundance fitness was -0.212 ± 0.078. Work on A6Q yielded an abundance fitness of -0.84 ± 0.28. Q45R gave an abundance fitness of -0.015 ± 0.065. Q45T gave an abundance fitness of -0.146 ± 0.11. Variant Q45F has an abundance fitness of -0.303 ± 0.18. Q45P showed an abundance fitness of -0.57 ± 0.16. Work on Q45H yielded an abundance fitness of -0.23 ± 0.21. For Q45N, the abundance fitness was -0.288 ± 0.23. Q45W gave an abundance fitness of -0.599 ± 0.091. Q45L showed an abundance fitness of -0.112 ± 0.087. F53N gave an abundance fitness of -0.527 ± 0.11. F53M gave an abundance fitness of -0.143 ± 0.12. Variant F53S has an abundance fitness of 0.032 ± 0.071. Work on F53G yielded an abundance fitness of -0.423 ± 0.077. In the case of F53T, the abundance fitness is reported as -0.214 ± 0.1. F53P showed an abundance fitness of -0.842 ± 0.15. With F53R the abundance fitness was -0.196 ± 0.066. For V54E, the abundance fitness was -0.709 ± 0.13. V54Q showed an abundance fitness of -0.901 ± 0.21. V54Y showed an abundance fitness of -0.826 ± 0.16. In the case of V54T, the abundance fitness is reported as -0.45 ± 0.14. Variant V54P has an abundance fitness of -0.732 ± 0.15. With V54C the abundance fitness was -0.375 ± 0.098. Variant V54I has an abundance fitness of -0.416 ± 0.11. Work on S9C yielded an abundance fitness of -0.25 ± 0.12. Variant S9G has an abundance fitness of -0.116 ± 0.077. S9H showed an abundance fitness of -0.254 ± 0.15. With S9Q the abundance fitness was -0.276 ± 0.14. For S9K, the abundance fitness was 0.017 ± 0.14. In the case of S9F, the abundance fitness is reported as -0.798 ± 0.13. G19W showed an abundance fitness of -0.823 ± 0.16. Variant G19N has an abundance fitness of -0.397 ± 0.17. For G19P, the abundance fitness was -0.16 ± 0.14. G19Q gave an abundance fitness of -0.256 ± 0.14. K22H gave an abundance fitness of -0.593 ± 0.2. Work on K22T yielded an abundance fitness of -0.187 ± 0.11. K22A showed an abundance fitness of -0.174 ± 0.086. With K22Q the abundance fitness was -0.371 ± 0.13. Work on K22W yielded an abundance fitness of -0.928 ± 0.13. With K22G the abundance fitness was -0.674 ± 0.086. Variant K22F has an abundance fitness of -0.603 ± 0.17. K22P gave an abundance fitness of -0.801 ± 0.18. Variant N2L has an abundance fitness of -0.185 ± 0.094. N2V gave an abundance fitness of -0.851 ± 0.14. Variant N2Q has an abundance fitness of -0.174 ± 0.17. In the case of N2I, the abundance fitness is reported as -0.094 ± 0.25. N2S gave an abundance fitness of -0.128 ± 0.11. With N2C the abundance fitness was -0.309 ± 0.2. G44P gave an abundance fitness of -1.07 ± 0.3. With G44Q the abundance fitness was -0.24 ± 0.12. Work on G44F yielded an abundance fitness of -0.394 ± 0.19. With G44R the abundance fitness was -0.22 ± 0.078.

Reference: the Human Domainome abundance scans (Beltran et al. 2025)
